Patent US20140377215A1
pKd: −log10 of the molar value.

Legend:
Experiment in all cases: 1H-15N HSQC NMR titration of 15N-labeled CBD with mini-collagen
[1] = target: [PROXYL-(POG)3POA(POG)6]3
[2] = target: [PROXYL-(POG)4POA(POG)5]3
[3] = target: [PROXYL-(POG)5POA(POG)4]3
[4] = target: [PROXYL-(POG)6POA(POG)3]3

Measured: pKd

collagen-binding domain (CBD), s3b (Gly893-Lys1008) peptide derived from Clostridium histolyticum cl, sequence (Q9X721 1003-1118 limits assumed): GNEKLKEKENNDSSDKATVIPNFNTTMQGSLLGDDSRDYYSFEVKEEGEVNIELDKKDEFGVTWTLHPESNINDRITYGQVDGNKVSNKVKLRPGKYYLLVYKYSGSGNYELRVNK

collagen-binding domain (CBD), s3b (Gly893-Lys1008) peptide derived from Clostridium histolyticum cl (from UniProt Q9X721 1003-1118)
> 4.00: all assays above
